# Where “and” joins values, the source holds several entries; their conditions need not be identical. Equal values may be shown once.
# B1: rhNRG-1 β: Recombinant human neuregulin fragment of 61 amino acid (SEQ ID NO:4), 3 disulfide bonds, expressed in E. coli (protein, listed as Homo sapiens)
# chain: SHLVKCAEKEKTFCVNGGECFMVKDLSNPSRYLCKCPNEFTGDRCQNYVMASFYKAEELYQ
# modifications: disulfide (positions not given here)
# Experiments:
# [1] = test system: toxic myocarditis caused by Adriamycin in rat; assay: Hemodynamics index, Adriamycin rat model; assay type: in vivo, SD rat; conditions: rat, Adriamycin model
# Procedure: rhNRG-1 β was injected into the tail vein within 24 hours after the first injection of Adriamycin. During the experiment, animal survival was dynamically monitored, heart function indexes (maximal rate of pressure increase within left ventricle, […], maximal rate of pressure decrease within left ventricle, −dp/dt, systolic end pressure of left ventricle LVPmax, diastolic end pressure of left ventricle LVPmin) were monitored at the 5th week. Section was made from the heart tissue and pathological changes examined.
# Hemodynamics index such as carotid artery pressure, intra-ventricular pressure. dp/dt was measured with six lead physiology recorder. Major procedure: separate the right carotid artery, ligate its distal end and block its proximal end with arterial clamps, 20 G arteriovenous indwelling needle was inserted into the carotid artery, took out the medal stylet, loosened the artery clamps, push the plastic trocar further into appropriate depth, indwelled for 10 minutes, observed the wave style recorded by the physiology recorder, after it was stable, then recorded the carotid artery pressure and push the trocar further into the left ventricle, kept in place for 15 minutes, after it was stable, then recorded the dp/dt, −dp/dt, LVPmax and LVPmin.
# [2] = test system: congestive heart failure caused by inferior vena cava constriction in dog; assay: Hemodynamic index by catheterization, TIVCC dog; assay type: in vivo, crossbred dog; conditions: for L(−dp/dt) / L(+dp/dt): left ventricle
# Procedure: 7F trifid balloon floating catheter was inserted into the right jugular vein, right auricular pressure, right ventricular pressure, pulmonary pressure and pulmonary wedge pressure were recorded.
# 6F trifid balloon floating catheter was again inserted into left carotid artery, aorta pressure and left ventricle pressure were recorded with physiology recorder with the following major index: LVPmax, LVPmin, +dp/dt, and −dp/dt.
# [3] = Acute toxicity experiment, intravenous injection; assay type: in vivo
# [4] = test system: phosphorylation of ErbB2 protein, MCF-7 cells; assay: In vitro determination of NRG-1 activity (ELISA test for kinase receptor activation); assay type: cell-based, human
# Source text: Quantity of standard product that can induce 50% maximal reaction is defined as an activity unit (1U). Accordingly, product from different pharmaceuticals and of different batch number can be quantitated with uniform criteria.
# HER2/neu gene encodes a trans-membrane protein p185, which is a tyrosine protein kinase. Binding of Neuregulin-1 with ErbB3 or ErbB4 induces heterodimer ErbB3-ErbB2 and ErbB4-ErbB2 formation and activates HER2 encoded tyrosine protein kinase, mediating the transmission of functioning signal of Neuregulin-1. Based on the fact that binding of Neuregulin-1 with its receptors triggers phosphorylation of ErbB2 protein, we establish a rapid, sensitive and high flux method for in vitro quantitatively determining biological activity of Recombinant Neuregulin-1.
# 150 mM NaCl+50 mM Hepes+1% Triton-X 100+2 mM (sodium orthovanadate)+0.01% (thimerosol). […]
# Wash the plate 5 times, dilute HRP enzyme linked mouse anti-phosphorylated tyrosine protein antibody with 1:500 lotion (determined by the product using guide and the using time), add 100 μl into each hole of the plate. […]
# Colorimetric analysis on the ELISA reader, determine wave length of 450 nm, reference wave length of 655, record the results. […]
# [5] = 10 μg/kg iv qd × 10 d, (I), listed as rhNRG-1β
# [6] = 20 μg/kg iv qd × 10 d, (I), listed as rhNRG-1β
# [7] = 40 μg/kg iv qd × 10 d, (I), listed as rhNRG-1β
molecule,measurement,setting,value
B1,+dp/dt,"[1]; 10 μg/kg iv qd × 10 d, (I)",4875±636 mmHg/s and 4875 mmHg/s
same,LVPmax,"[1]; 10 μg/kg iv qd × 10 d, (I)",145±15.2 mmHg and 145 mmHg
same,LVPmin,"[1]; 10 μg/kg iv qd × 10 d, (I)",−24.5 mmHg
same,−dp/dt,"[1]; 10 μg/kg iv qd × 10 d, (I)",−3672±884 mmHg/s and −3672 mmHg/s
same,+dp/dt,[1]; [5],4875±636 mmHg/s
same,LVPmax,[1]; [5],145±15.2 mmHg
same,−dp/dt,[1]; [5],−3672±884 mmHg/s
same,+dp/dt,"[1]; 10 μg/kg iv qd × 10 d, (II)",4956 mmHg/s
same,LVPmax,"[1]; 10 μg/kg iv qd × 10 d, (II)",158.2 mmHg
same,LVPmin,"[1]; 10 μg/kg iv qd × 10 d, (II)",−22.4 mmHg
same,−dp/dt,"[1]; 10 μg/kg iv qd × 10 d, (II)",−3626 mmHg/s
same,+dp/dt,"[1]; 20 μg/kg iv qd × 10 d, (I)",6107±418 mmHg/s and 6107 mmHg/s
same,LVPmax,"[1]; 20 μg/kg iv qd × 10 d, (I)",156.1±17.7 mmHg and 156.1 mmHg
same,LVPmin,"[1]; 20 μg/kg iv qd × 10 d, (I)",−26.9 mmHg
same,−dp/dt,"[1]; 20 μg/kg iv qd × 10 d, (I)",−4323±457 mmHg/s and −4323 mmHg/s
same,+dp/dt,[1]; [6],6107±418 mmHg/s
same,LVPmax,[1]; [6],156.1±17.7 mmHg
same,−dp/dt,[1]; [6],−4323±457 mmHg/s
same,+dp/dt,"[1]; 20 μg/kg iv qd × 10 d, (II)",5833 mmHg/s
same,LVPmax,"[1]; 20 μg/kg iv qd × 10 d, (II)",157.7 mmHg
same,LVPmin,"[1]; 20 μg/kg iv qd × 10 d, (II)",−26.6 mmHg
same,−dp/dt,"[1]; 20 μg/kg iv qd × 10 d, (II)",−4345 mmHg/s
same,+dp/dt,"[1]; 40 μg/kg iv qd × 10 d, (I)",5954±689 mmHg/s and 5954 mmHg/s
same,LVPmax,"[1]; 40 μg/kg iv qd × 10 d, (I)",165.7±22.7 mmHg and 165.7 mmHg
same,LVPmin,"[1]; 40 μg/kg iv qd × 10 d, (I)",−27.4 mmHg
same,−dp/dt,"[1]; 40 μg/kg iv qd × 10 d, (I)",−4794±954 mmHg/s and −4794 mmHg/s
same,+dp/dt,[1]; [7],5954±689 mmHg/s
same,LVPmax,[1]; [7],165.7±22.7 mmHg
same,−dp/dt,[1]; [7],−4794±954 mmHg/s
same,+dp/dt,"[1]; 40 μg/kg iv qd × 10 d, (II)",6041 mmHg/s
same,LVPmax,"[1]; 40 μg/kg iv qd × 10 d, (II)",166.3 mmHg
same,LVPmin,"[1]; 40 μg/kg iv qd × 10 d, (II)",−22.2 mmHg
same,−dp/dt,"[1]; 40 μg/kg iv qd × 10 d, (II)",−4529 mmHg/s
same,LVPmax,[2]; 1 μg/kg iv daily 5 days,102.12 ± 12.42 mmHg
same,LVPmin,[2]; 1 μg/kg iv daily 5 days,0.59 ± 3.05 mmHg
same,LVPmax,[2]; 3 μg/kg iv daily 5 days,114.68 ± 17.12 mmHg
same,LVPmin,[2]; 3 μg/kg iv daily 5 days,−1.12 ± 1.34 mmHg
same,LVPmax,[2]; 10 μg/kg iv daily 5 days,122.87 ± 17.37 mmHg
same,LVPmin,[2]; 10 μg/kg iv daily 5 days,−0.69 ± 1.05 mmHg
same,effect on the right ventricle,"[2]; 1, 3 and 10 μg/kg iv daily 5 days",not apparent
same,L(−dp/dt),[2]; 1 μg/kg iv daily 5 days,−2933 ± 613.44 mmHg/s
same,L(+dp/dt),[2]; 3 μg/kg iv daily 5 days,5000.45 ± 1535.88 mmHg/s
same,L(−dp/dt),[2]; 3 μg/kg iv daily 5 days,−3249.52 ± 973.32 mmHg/s
same,L(+dp/dt),[2]; 10 μg/kg iv daily 5 days,5104.88 ± 1332.05 mmHg/s
same,L(−dp/dt),[2]; 10 μg/kg iv daily 5 days,−3658.34 ± 1390.97 mmHg/s
same,MTD of acute toxicity experiment,[3],35 mg/kg
same,specific activity,[4]; batch number 200210024,1.12×10^4 U/mg
same,specific activity,[4]; purified recombinant neuregulin from engineered strain,more than 5×10^3 EU/mg
